In the nanobody polyreactivity screen of Harvey et al. (2022):

assay: yeast display, Sf9 membrane polyspecificity reagent, FACS + sequencing; frameworks hold sequencing errors
Outline: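 Polyreactivity labels are assigned by the sorting gate from which each nanobody was recovered. The gates were low and high (top ~1%), set on anti-HA fluorescence for expression and streptavidin fluorescence for reagent binding. Before sorting, galactose-induced (36–48 hours) yeast display cells were stained for 1 hour at 4 °C with 10% biotinylated, detergent-solubilized Sf9 membrane reagent.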

Sequence	polyreactivity (PSR sort gate)
QVQLVESGGGLVQAGGSLRLSCAASGNIFETNAMGWYRQAPGKERELVAAITRSGGSTYYADSVKGRFTISRDNAKNTVYLQMNSLKPEDTAVYYCAYYPYGYDYWGQGTQVTVSS	high polyreactivity
QVQLVESGGGLVQAGGSLRLSCAASGNIFETNAMGWYRQAPVKERELVAAISASGGSTYYADSVKGRFTISRDNAKNNVYLQMNSLKPEDTAVYYCNDRVDSYYGDAFDYWGQGTQVTVSS	high polyreactivity
QVQLVESGGGLVQAGGSLRLSCAASGNIFFGYAMGWYRQAPGKEREFVASITKIGGSTYYADSVQGRFTISRDNAKNTVYLQMNSLKPEHTAVYYCAKTILYDCDYWGQGTQVTVSS	low polyreactivity
QVQLVESGGGLVQAGGSLRLSCAASGNIFGHYAMGWYRQAPGKERELVAAISSRGGRTYYADSVKGRFTISRDNAKNTVYLQMNSLKPEDTAVYYCAHKTRQKFGYWGQGTQVTVSS	high polyreactivity
QVQLVESGGGLVQAGGSLRLSCAASGNIFGRYAMGWYRQAPGKERELVAAISSGDITYYADSVKGRFTISRDNAKNTVYLQMNSLKPEDTAVYYCAADSYWSVVYIKYDYWGQGTQVTVSS	low polyreactivity
QVQLVESGGGLVQAGGSLRLSCAASGNIFGWYAMGWYRQAPGKERELVAAISSGGRTNYADSVKGRFTISRDNAKNTVYLQMNSLKPEDTAVYYCAVGLHKRPPPPRFRQYNYWGQGTQVTVSS	low polyreactivity
QVQLVESGGGLVQAGGSLRLSCAASGNIFHDNAMGWYRQAPGKERELVAAISDSGGSTYYADSVKGRFTISRDTAKNTVYLQMNSLKPEDTAVYYCDSGRTYYAPYQWWYDYWGQGTQVTVSS	high polyreactivity
QVQLVESGGGLVQAGGSLRLSCAASGNIFIRYAMGWYRQAPGKERELVAAISQSGGGTSYADSVKGRFRISRDNAKNTVYLQMNSLKPEDTAVSYCNVEKVGHFNSYGYDYWGQGTQVTVSS	low polyreactivity
QVQLVESGGGLVQAGGSLRLSCAASGNIFKQYTMGWYRQAPGKERELVAAIRSRGGSTYYADSVKGRLTISRDNAKNTVYLQMNSLKPEDTAVYYCAKVLGRTTLRMDYWGQGPQVTVSS	high polyreactivity
QVQLVESGGGLVQAGGSLRLSCAASGNIFLSYAMGWYRQAPGKERDLVAGISASGGRTYYADSVKGRFTISRDNAKNTVYFQMNSLKPEDTALYYCNAGWGVVIRRYPTYDYWGQGTQVTVSS	high polyreactivity
QVQLVESGGGLVQAGGSLRLSCAASGNIFLYYAMGWYRQAPGKERELVADIDSSGASTYYADSVKGRFTISRDNAKNTVYLQMNSLKPEDTAVYNCAARAERVREYNYWGQGTQVTVSS	low polyreactivity
QVQLVESGGGLVQAGGSLRLSCAASGNIFNEYARGWYSQAPGKESELVAAITWSAGSTYYADSVKGRFTISRDNAKNTVYLQMNSVKPEDTGVYYCNTQEKANTQHYYWGQGTQVTVSS	low polyreactivity
QVQLVESGGGLVQAGGSLRLSCAASGNIFPPNTMGWDRQAPGKDRELVAAISSRGSRTYYADSVKGRFTISRDNAKNTVYLQMNSLKPEDTAVYYCAAQQWQGGYLYDYWGQGTQVTVSS	high polyreactivity
QVQLVESGGGLVQAGGSLRLSCAASGNIFQGNAMGWYRQAPGKERELVAAITSDGSTYADSVKGRFTISRDNAKNTVYLQLNSLKPEDTAVYYCNADGITSLPVPALDYWGQGTQATVSS	low polyreactivity
QVQLVESGGGLVQAGGSLRLSCAASGNIFQGNAMGWYRQAPGKERELVAAITSDGSTYADSVKGRFTISRDNAKNTVYLQMNSLKPEETAVYYCNADCITSLPVPALDYWGQGTQVTVSS	low polyreactivity
QVQLVESGGGLVQAGGSLRLSCAASGNIFQRYAMGWYRQAPGKVRELVAAISGNGGNSFYADSVKGRFTISRDNAKYTVYLQMNSLKPEDTAVYYCNTVYVVYGFDYWGQGTQVTVSS	high polyreactivity
QVQLVESGGGLVQAGGSLRLSCAASGNIFRIYAMGWYRQAPGKERALVAAITSRGAITNYADSVKGRFTISRDYAKNTVYLQMISLKPEDTAVYYCAASYRRLTGVGADEYWGQGTQVTVSS	high polyreactivity
QVQLVESGGGLVQAGGSLRLSCAASGNIFRKNAMGWYRQAPGKERELVAAITSVGSTNYADSVKGRFTISRDNAKNTVYLQMTSLKPEDTAVYYCDARSQIYYRYRSYGYWGQGTQVTVSS	high polyreactivity
QVQLVESGGGLVQAGGSLRLSCAASGNIFRNNAMGWYRQAPGKERELVAAISRGGSTYYADSVKGRFTISRDNAKNTVYLQMNSLKPEDTAVYYCNKYSSRAYNYWGQGTHVTVSS	high polyreactivity
QVQLVESGGGLVQAGGSLRLSCAASGNIFRSYAMGWYRQAPGKERELVAAISSSDDSTYYADSVKGRFTISRDNAKNTVYLQMNSLKPEDTAVYYCAADGWSWYKGYVGDDMDYWGQGTQVTVSS	low polyreactivity
QVQLVESGGGLVQAGGSLRLSCAASGNIFSAYAMGWYRQAPGTERELVAAISRSVTITYYADSVKGRFTISRDNAKKTDYLQMNSLKPEDTAVYYCAARDYHYPKFGYCGQGTQVTVSS	high polyreactivity
